Reference: paper PMC4854285

Target: biotinylated peptide composed of residues 656-683 of the gp41 MPER (RRR-…-RRK-biotin) (HIV-1)
Experiment: SPR

Q: For 10E8 antigen-binding fragment (Fab), which Kd is on record?
A: 17 nM
